From patent US20250262210A1 (TRUSTEES OF COLUMBIA UNIVERSITY IN THE CITY OF NEW YORK, published 2025)

What was measured:
[1] = target: T1, SMPD4 (human, UniProt Q9NXE4 1-866, limits assumed); test: IP/MS, LZTR1 R810W-FLAG, U87
T1 sequence (looked up): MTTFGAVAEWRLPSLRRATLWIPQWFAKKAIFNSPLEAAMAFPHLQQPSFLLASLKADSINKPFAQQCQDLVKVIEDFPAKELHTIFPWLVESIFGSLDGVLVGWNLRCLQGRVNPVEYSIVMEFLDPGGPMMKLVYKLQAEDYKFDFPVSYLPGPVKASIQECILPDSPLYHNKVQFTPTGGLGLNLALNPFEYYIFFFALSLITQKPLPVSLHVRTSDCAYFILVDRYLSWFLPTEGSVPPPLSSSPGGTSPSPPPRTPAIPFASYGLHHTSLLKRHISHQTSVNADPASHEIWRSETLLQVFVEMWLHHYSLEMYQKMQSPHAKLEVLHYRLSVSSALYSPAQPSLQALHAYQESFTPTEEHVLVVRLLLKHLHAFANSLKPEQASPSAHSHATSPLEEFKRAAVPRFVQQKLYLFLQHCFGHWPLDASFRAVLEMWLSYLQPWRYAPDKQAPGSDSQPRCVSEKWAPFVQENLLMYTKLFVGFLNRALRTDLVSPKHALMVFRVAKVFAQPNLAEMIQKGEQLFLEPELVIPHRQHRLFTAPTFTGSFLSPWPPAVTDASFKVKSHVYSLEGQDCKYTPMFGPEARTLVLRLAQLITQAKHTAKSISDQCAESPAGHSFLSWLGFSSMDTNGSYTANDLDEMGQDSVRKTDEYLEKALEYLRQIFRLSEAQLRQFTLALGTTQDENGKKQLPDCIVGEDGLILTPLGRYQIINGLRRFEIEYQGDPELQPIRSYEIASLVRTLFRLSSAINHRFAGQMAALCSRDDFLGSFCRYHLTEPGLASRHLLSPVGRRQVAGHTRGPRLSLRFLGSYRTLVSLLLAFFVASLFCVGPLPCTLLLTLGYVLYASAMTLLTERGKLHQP
In short: (§1)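 Gel slices were reduced with 5 mM DTT, alkylated with 11 mM IAA and digested overnight at 37° C. with trypsin. Peptides were analysed on an Orbitrap Fusion Tribrid by LC-MS/MS.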

[2] = target: T2, WDR6 (human, UniProt Q9NNW5 1-1121); test: IP/MS, LZTR1 R810W-FLAG, U87
T2 sequence (looked up): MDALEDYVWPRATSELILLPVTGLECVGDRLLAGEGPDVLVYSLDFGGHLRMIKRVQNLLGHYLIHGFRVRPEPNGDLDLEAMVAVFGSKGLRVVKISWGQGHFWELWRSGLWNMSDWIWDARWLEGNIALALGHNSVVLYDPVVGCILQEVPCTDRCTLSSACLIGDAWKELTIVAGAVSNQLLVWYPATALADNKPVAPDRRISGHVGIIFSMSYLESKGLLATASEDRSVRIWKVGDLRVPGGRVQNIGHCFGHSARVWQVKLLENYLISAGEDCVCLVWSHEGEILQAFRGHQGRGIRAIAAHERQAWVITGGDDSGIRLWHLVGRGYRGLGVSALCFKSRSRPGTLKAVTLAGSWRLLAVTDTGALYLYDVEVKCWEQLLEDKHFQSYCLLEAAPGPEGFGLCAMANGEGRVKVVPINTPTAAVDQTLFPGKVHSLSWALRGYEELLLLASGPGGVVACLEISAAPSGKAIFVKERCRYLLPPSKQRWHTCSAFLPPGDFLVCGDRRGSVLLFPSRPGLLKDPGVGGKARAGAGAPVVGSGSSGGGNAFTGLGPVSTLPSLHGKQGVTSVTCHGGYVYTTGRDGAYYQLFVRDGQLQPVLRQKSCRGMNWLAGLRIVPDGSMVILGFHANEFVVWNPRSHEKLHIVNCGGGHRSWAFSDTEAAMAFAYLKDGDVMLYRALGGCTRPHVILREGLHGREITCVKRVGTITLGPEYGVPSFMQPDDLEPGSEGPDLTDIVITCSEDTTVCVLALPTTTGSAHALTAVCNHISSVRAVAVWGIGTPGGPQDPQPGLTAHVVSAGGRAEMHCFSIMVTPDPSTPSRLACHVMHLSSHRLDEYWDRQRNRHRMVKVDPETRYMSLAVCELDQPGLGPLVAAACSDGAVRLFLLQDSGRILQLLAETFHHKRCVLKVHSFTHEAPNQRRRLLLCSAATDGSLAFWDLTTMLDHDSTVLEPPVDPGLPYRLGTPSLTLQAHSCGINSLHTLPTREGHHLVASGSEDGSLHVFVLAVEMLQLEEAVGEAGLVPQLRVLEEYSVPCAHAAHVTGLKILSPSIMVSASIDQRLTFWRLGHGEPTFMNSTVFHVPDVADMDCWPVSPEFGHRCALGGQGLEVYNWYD
In short: as §1

B1: LZTR1 R810W-FLAG (other, human, UniProt Q8N653 1-840, looked up)
chain: MAGPGSTGGQIGAAALAGGARSKVAPSVDFDHSCSDSVEYLTLNFGPFETVHRWRRLPPCDEFVGARRSKHTVVAYKDAIYVFGGDNGKTMLNDLLRFDVKDCSWCRAFTTGTPPAPRYHHSAVVYGSSMFVFGGYTGDIYSNSNLKNKNDLFEYKFATGQWTEWKIEGRLPVARSAHGATVYSDKLWIFAGYDGNARLNDMWTIGLQDRELTCWEEVAQSGEIPPSCCNFPVAVCRDKMFVFSGQSGAKITNNLFQFEFKDKTWTRIPTEHLLRGSPPPPQRRYGHTMVAFDRHLYVFGGAADNTLPNELHCYDVDFQTWEVVQPSSDSEVGGAEVPERACASEEVPTLTYEERVGFKKSRDVFGLDFGTTSAKQPTQPASELPSGRLFHAAAVISDAMYIFGGTVDNNIRSGEMYRFQFSCYPKCTLHEDYGRLWESRQFCDVEFVLGEKEECVQGHVAIVTARSRWLRRKITQARERLAQKLEQEAAPVPREAPGVAAGGARPPLLHVAIREAEARPFEVLMQFLYTDKIKYPRKGHVEDVLLIMDVYKLALSFQLCRLEQLCRQYIEASVDLQNVLVVCESAARLQLSQLKEHCLNFVVKESHFNQVIMMKEFERLSSPLIVEIVRRKQQPPPRTPLDQPVDIGTSLIQDMKAYLEGAGAEFCDITLLLDGHPRPAHKAILAARSSYFEAMFRSFMPEDGQVNISIGEMVPSRQAFESMLRYIYYGEVNMPPEDSLYLFAAPYYYGFYNNRLQAYCKQNLEMNVTVQNVLQILEAADKTQALDMKRHCLHIIVHQFTKVSKLPTLWSLSQQLLLDIIDSLASHISDKQCAELGADI
notes: Stably expressed in U87 cells by lentivirus; also called LZTR1-FLAG-R810W; LZTR1 RW; not shown: FLAG tag
binding result [1]: binds | binding result [2]: binds
